System: C[C@@H]1O[C@H](OP(=O)(O)OP(=O)(O)OC[C@H]2O[C@@H](n3cnc4c(=O)[nH]c(N)nc43)[C@H](O)[C@@H]2O)[C@@H](O)[C@H](O)[C@@H]1O
Assay: purified protein
Settings: apparent, acceptor LacNAc 3 mM, Tris-HCl pH 7.5, 37 °C

Which Km does the source give for Hp3FT (Helicobacter pylori) here?
The Km was 6.4480 ± 1.1360 mM.

What about the kcat of the same substance?
Its kcat is 0.617 ± 0.0417 s⁻¹.

What about the kcat/Km of the same substance?
Its kcat/Km is 96 M⁻¹ s⁻¹.

— publication PMC6613818
